Patent publication US20230174616A1 (UNIVERSITY OF SOUTHERN CALIFORNIA, published 2023)
Primed or numbered codes have the meaning given here. Where no end group is shown, it is not given here. Side-chain parts run from the residue outwards. [ ]: non-standard residue; d: D form. triazole = 1,2,3-triazole formed by click reaction of the propargylglycine alkyne with ROX-azide; Pra′ = its azide, alkyne or alkene has reacted where a group follows in round brackets; ROX = carboxy-X-rhodamine, joined by click triazole

Legend:
[1] = target: T1, biotinylated hPD-L1 (extracellular domain of human PD-L1, Ala18 to Thr239, expressed in E. coli, … (human, biotin on the epsilon-amino group of the Avi tag lysine (BirA))); assay: fluorescence polarization, 100 nM ROX-SPAM with 2.4 nM-5 uM non-glycosylated hPD-L1, 21 C (119 +/- 33 nM in paragraph 94); non-glycosylated, E. coli-expressed hPD-L1
T1 construct: also called recombinant hPD-L1; non-glycosylated hPD-L1
Procedure: (§1) The resulting values were plotted against the concentration of hPD-L1 or hPD-L1* and fit to a one-site saturation binding model with GraphPad Prism.
(§2) The fluorescence polarization of each sample was measured on a Synergy H4 Hybrid Multi-Mode Microplate Reader. Each measurement was carried out in triplicate and the mean value was calculated. The values were fit to a one-site saturation binding model in GraphPad Prism to obtain the corresponding equilibrium dissociation constants.

[2] = target: T1, biotinylated hPD-L1 (extracellular …); assay: fluorescence anisotropy, 100 nM ROX-SPAM titrated with hPD-L1
Procedure: (§3) Each measurement was carried out in triplicate and the mean value was reported along with the standard deviation. […] The mean of the normalized binding for each incubation time is shown along with the standard deviation of the mean. Each measurement was carried out in triplicate and error bars show the standard deviation of the mean (Students t-test; p value <0.05 (*), <0.01 (**), <0.005 (***), <0.001 (****)).
as §1

[3] = target: T2, hPD-L1* (recombinant glycosylated human PD-L1 ectodomain, A18-T239, expressed in Expi293F cells) (human, UniProt Q9NZQ7 18-239, N-glycosylated; Avi tag biotinylated in vitro with BirA); assay: fluorescence anisotropy, 100 nM ROX-SPAM titrated with hPD-L1*
T2 construct: also called glycosylated hPD-L1
Procedure: as §3, §1

[4] = target: T2, hPD-L1* (recombinant glycosylated human …); assay: fluorescence polarization, 100 nM ROX-SPAM with 2.4 nM-5 uM glycosylated hPD-L1*, 22 C (67 +/- 21 nM in paragraph 94); glycosylated hPD-L1*
Procedure: as §1, §2

Kd [1]: 119 nM
EC50 (read off the curve) [2]: ~100 nM
EC50 (read off the curve) [3]: ~70 nM
Kd [4]: 67 nM
B1: ROX-SPAM (carboxy-X-rhodamine labeled SPAM peptide) (peptide)
peptide: MPIFLDHILNKFWILHYASG[Pra′]([triazole-ROX])-NH2
modifications: also: ROX attached to Pra by click triazole
notes: Synthetic peptide used in fluorescence polarization; also called ROX-labeled SPAM
